The RNAGym collection of RNA variant scans (doi:10.1073/pnas.2313332121)
Variants at the floor of the assay were thinned out.

B1: TPR 5TU (parent)
chain: GGAUCUUCUCGAUCUAACAAAAAAGACAAAUCUGCCACAAAGCUUGAGAGCAUCUUCGGAUGCAGAGGCGGCAGCCUUCGGUGGCGCGAUAGCGCCAACGUUCUCAACUAUGACACGCAAAACGCGUGCUCCGUUGAAUGGAGUUUAUCAUG

Variants of: B1
Assay: polymerase ribozyme fitness, log enrichment relative to wild type (log ratio); higher = more active; in vitro selection for triplet polymerase activity
Method in brief: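 Input and output libraries were sequenced on Illumina after a single in vitro selection round, run in triplicate on PCR-built, transcribed mutant libraries of each subunit of a heterodimeric triplet polymerase ribozyme. Selection annealed libraries to a biotinylated primer, the partner subunit and triplets, incubated them frozen at −7 °C, then gel-excised extended constructs for streptavidin-bead capture and RT-PCR. Genotypes with ≥10 input reads and ≥1 read per output were kept. Fitness is the logarithm, taken in base 2, of genotype enrichment divided by wild-type enrichment, using inverse-variance-weighted replicate averages.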

Variant	polymerase ribozyme fitness (log ratio)
C5A C27U	-1.46
U4G G48A G88C C123U U134G A137C	≤ -4.2
C5A A49U C57A	-0.832
U4G A41U A91C A97U	≤ -4.2
U4C A17U G50U G58A G92C C99U G117U	≤ -4.2
U4C C95U A122U	-0.317
C5A A17U G42A G83C U102A A119U G126U G141U	≤ -4.2
U4G G50C A73G U102C	≤ -4.2
U4C U15G U77A G92U C99G	≤ -4.2
U4C G48U A49C G68A C79G C105A	≤ -4.2
U4C G86U	-1.9
C5A U44A A73U C79U C85U G126U	≤ -4.2
C5G C18A C87G G143A	≤ -4.2
C5A A40C G50U C57U G81C C95A U104G C116G G133A	≤ -4.2
C5G A19G A29C A39C U145C	≤ -4.2
U4C C103A U139C	-3.94
U4C A49C A52C C99A C132U G136U G140U	≤ -4.2
C5A A41C C54U C85A C103A G117A G133C A137U	≤ -4.2
C5G C10G A28U U33G C79U	≤ -4.2
C5A G48C	-0.334
U4G A12G A17G C93U G141C	-3.94

Variant	polymerase ribozyme fitness (log ratio)
U4G A40C A49G C96A	-3.02
C5A C87U	-0.502
C5A C51U	-0.595
U4C C27U G62C C85A A138U	≤ -4.2
U4C U53A G92C C114A A120G	≤ -4.2
C5A A12G A23C G84A	-4.02
C5A C8G A21U C54G C57U G58A C69A G81A A115U G133C G143U	≤ -4.2
C5G A41G C85U C95U A122U C132A	-3.5
U4C G11U A49G U61A G80C A98G G141A	≤ -4.2
C5G A19C G42U C79U C105U G126U	≤ -4.2
U4C G94C C116G	-0.818
C5G A21G U55A C57U A147C	-0.914
C5A U9G A73G C87U A120U C123U A147G	-3.95
U4G A16G C54U G62C G71A U101G C105U A142G U144A	≤ -4.2
U4C C57U A66C C87U	≤ -4.2
C5G C8G C85A G126U	≤ -4.2
C5A A47U G84A G124U	-1.14
U4G G88U	-3.2
U4C C51U C76U G94A	-1.51
U4C A19G C76G G86U A89G A106C U134G	≤ -4.2
U4C A19U G86U	-2.06

Variant	polymerase ribozyme fitness (log ratio)
C5A A30G C36U G68U G100A	≤ -4.2
C5A A24G A64C G68A C76U C79U G83C U90A C95G A115U A138G	≤ -4.2
U4C A28G C38U C69U C87G G133A	≤ -4.2
U4C C10G A28C A49C G86A C99G U104G	≤ -4.2
U4G A106G	-0.112
U4G G11U A40U U55A A98U	-3.1
C5A U7C C18G U55A G58A A89C	-1.54
U4G G84A C87U A106C G141A U144G	≤ -4.2
U4C A20G C85A A98C A115G	-2.8
U4C A22U C32G C38G G65C G81A C118U C149U	≤ -4.2
C5A C85U G86C A119C A120C	-3.07
U4G C38A A47C C85G	-3.7
C5G A29C A47C G50A G86A U90A A91U G143C	≤ -4.2
U4G A49U C57U U82G A91U	≤ -4.2
U4G A22U A37C C95A C96A U127G	≤ -4.2
C5A C85U	-0.371
U4C C76A C93U G141C	≤ -4.2
C5A A16U U53A C57G U90G C95A	≤ -4.2
C5A U45G C85U A115U G141U	-3.86
U4G A16C A28U C38U U55A C75G U111C A122U A142C	≤ -4.2
U4G U56A A60C C76G A91C C95U A142C	≤ -4.2

Variant	polymerase ribozyme fitness (log ratio)
C5G A21U A49G C93A A137U	≤ -4.2
C5G A12G A22U C38A U44G C75A C79U C93A G133U	≤ -4.2
C5A C57G C72U A73U G80C C93G A110U	≤ -4.2
U4G A21G A52G G141A	-2.63
U4C U53A U55A G81C A150U	-1.4
U4C C5G C32A A40C U82C A98G C103U A113C A150C	≤ -4.2
C5G A39U G59U G68A A98G A115G A137G G143U	≤ -4.2
C5A G50A C105U C116A	-1.3
C5G A52G G83C C93U	-3.55
U4C C5U A12C G25C A40U G58C G133U	≤ -4.2
C5G C18A A23G C54G G67A C93G C99G	≤ -4.2
C5G C57U	-0.358
U4G U33G C75A C87G U109A A113U G117U	≤ -4.2
C5G C8U A24G G34A A41G G70C A107G G124U U151G	≤ -4.2
U4G A21U C32G C38G C93G U146A	≤ -4.2
U4G A40C A137G	-1.84
U4G C54G A64U C95U U134G	≤ -4.2
C5A A28U U55A C57G C96U G141U	≤ -4.2
C5A A16U A24U C35A U56A C85G U109G U144C	≤ -4.2
U4C C18U G48U A49C G68U G74A C76A G88U C116G	≤ -4.2
